According to publication PMC6389991:

Key:
[1] = target: PfHsp70-x-C (27–679) (P. falciparum); experiment: pull-down; PfHsp70-x-C cross-linked to coupling resin, increasing PFA0660w-C (1.4286-28.5714 µM), with 1 mM ATP; band densities on SDS-PAGE, nonlinear regression
[2] = target: PfHsp70-x-C (27–679) (P. falciparum)
[3] = target: PfHsp70-x-S (30–412) (P. falciparum)
[4] = target: PfHsp70-x-C (27–679) (P. falciparum); remark: listed apart in the source
[5] = target: PfHsp70-x-S (30–412) (P. falciparum); remark: listed apart in the source
[6] = target: PfHsp70-x-C (27–679) (P. falciparum); experiment: pull-down; PfHsp70-x-C cross-linked to coupling resin, increasing PFA0660w-C (1.4286-28.5714 µM), without ATP; band densities on SDS-PAGE, nonlinear regression
[7] = target: PfHsp70-x-C (27–679) (P. falciparum); experiment: BLI; Octet K2, 25 °C; His-tagged PfHsp70-x-C loaded on Ni-NTA biosensors, ATS as analyte (1.563-6.25 µM); steady-state analysis, 1:1 model

Row | Substance | Kd [1] | beta galactosidase refolding: recovered enzyme activity with PFA0660w-C and PfHsp70-x-C together [2] | beta galactosidase refolding: recovered enzyme activity with PFA0660w-C and PfHsp70-x-S together [3] | MDH aggregation suppression (absorbance at 360 nm, 48 °C): percent MDH aggregation with PFA0660w-C and PfHsp70-x-C together [4] | MDH aggregation suppression (absorbance at 360 nm, 48 °C): percent MDH aggregation with PFA0660w-C and PfHsp70-x-S together [5] | Kd [6] | Kd [7]
1 | PFA0660w-C (81–386) (domain or fragment) | 0.781 µM | 66.7% | 34.7% | 10.7% | 18.2% | 5.58 µM | 
2 | acidic terminal segment (ATS) domain of PfEMP1 (PF08_0141) (domain or fragment) |  |  |  |  |  |  | 180 µM
